This is an account of results in article PMC3983046.

One data set concerns the target Ash2LN K225E (human, UniProt Q9UBL3 95-280, K225E). Kind of data set: EMSA. (In EMSA bound probe runs differently from free probe, usually more slowly.)
The target of another data set is Ash2LN K229E (human, UniProt Q9UBL3 95-280, K229E). Kind of data set: EMSA.
Chain of Ash2LN K229E (Q9UBL3 95-280 K229E): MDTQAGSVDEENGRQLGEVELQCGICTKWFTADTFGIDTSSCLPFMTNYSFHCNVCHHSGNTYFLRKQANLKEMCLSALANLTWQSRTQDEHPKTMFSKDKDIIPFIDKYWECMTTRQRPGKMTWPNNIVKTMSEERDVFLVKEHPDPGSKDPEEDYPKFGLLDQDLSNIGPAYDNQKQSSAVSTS

Chain of Ash2LN K225E (Q9UBL3 95-280 K225E): as the sequence (Q9UBL3 95-280 K229E) above, with K131E, E135K counted along it

B1: HS2 (dsDNA)
DNA 1: GCAATGCTGAGTCATGATGAGTCATGCTGAGGCTTAGGGTGTGTGC
DNA 2: GCACACACCCTAAGCCTCAGCATGACTCATCATGACTCAGCATTGC
For B1, the binding result in the data set with Ash2LN K225E and with Ash2LN K229E was “no binding” each time.
